The record followed here is patent US20160060347A1 (MorphoSys, published 2016).

Test [1] deals with T1, human CXCR2 (human, UniProt P25025 1-360).
T1 construct: Expressed on Flp-In CHO cells (FACS, Fab-ZAP, ADCC, CDC) or on bought PathHunter CHO cells (beta-arrestin assay); the construct in the PathHunter cells is not described; also called chemokine receptor CXCR2; CXCR2 CHO Flp-In cells
T1 sequence: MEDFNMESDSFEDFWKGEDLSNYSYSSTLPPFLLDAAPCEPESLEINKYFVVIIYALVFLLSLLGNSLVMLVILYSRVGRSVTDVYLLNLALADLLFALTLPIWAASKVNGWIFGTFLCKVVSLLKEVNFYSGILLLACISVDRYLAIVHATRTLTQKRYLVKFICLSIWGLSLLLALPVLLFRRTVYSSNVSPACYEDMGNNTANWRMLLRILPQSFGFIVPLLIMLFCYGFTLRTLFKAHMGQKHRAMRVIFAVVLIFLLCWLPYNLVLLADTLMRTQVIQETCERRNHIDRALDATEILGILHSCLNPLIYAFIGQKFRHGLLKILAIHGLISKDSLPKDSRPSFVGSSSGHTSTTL
The test can be described thus: FACS, CXCR2 Flp-In CHO cells, IgG1. The method, then: (§1) Human CXCR2-expressing Flp-In™ CHO cells were harvested at ˜80% confluence washed once with PBS (Gibco, Cat #14190-094) and detached using Versene (Invitrogen, Cat #15040-033). Subsequently, cells were counted and centrifuged at 250×g for 5 min at 4° C. Afterwards, cells were diluted in Superblock (Thermo Fisher Perbio Science, Cat #37515) to a cell concentration of 2E+05-1E+06/mL and 100 μL/well were transferred to 96-well microtiter plate (Nunc, Cat#163320). Cells were once centrifuged, supernatant discarded and antibodies added at 1 μg/mL (unless stated otherwise), incubated for 1 h at 4° C. and washed twice with FACS buffer (PBS/3% FCS/0.02% NaN3). Binding of anti-CXCR2 antibodies was detected by incubation of Phycoerythrin-conjugated anti-human IgG (Dianova, Cat #109-116-097) for 1 h at 4° C. Samples were subsequently measured using FACS Array (Becton Dickinson).
All six Fabs were converted into IgG1 format and were expressed in a human cell line and purified via protein A chromatography for further analysis. All antibodies were tested for specific CXCR2 binding on CXCR2-expressing CHO Flp-In™ cells by FACS. Additionally, inhibition of CXCR2 mediated beta-arrestin signaling by the antibodies was analyzed. Furthermore, IC₅₀ concentrations for cytotoxicity of respective antibodies via secondary immunotoxin in a Fab-ZAP assay using CXCR2 expressing CHO Flp-In™ cells were determined together with the capability of the antibodies to induce complement-dependent cellular cytotoxicity (CDC) and antibody-dependent cellular toxicity (ADCC). Respective experimental settings as outlined in Example 3 were used (data of one representative experiment are shown).
On the technique in general: In flow cytometry, cells or beads pass a laser one at a time.

Test [2] deals with T2, ECL3 peptide aa273-295, BSA-coupled (human; bovine, coupled to carrier protein BSA; C-terminal cysteine introduced to enable coupling).
T2 construct: also called CXCR2 aa273-295 BSA; peptides representing the extracellular domain 3
The test can be described thus: ELISA, coated peptide-BSA, Fab. The procedure: (§2) 384-well Maxisorp plates (Nunc; Cat. #460518) were coated with respective CXCR2 and control peptides coupled either to BSA or Transferrin (TRF) at 1-5 μg/mL and incubated o/n at 4° C. […] After three washing steps, antibodies were added at 5-10 μg/mL and titrated in some experiments. Antibodies were incubated 1 h at room temperature and plates were subsequently washed. Binding of anti-CXCR2 antibodies was detected by using alkaline phosphatase-conjugated anti-human IgG, (Dianova, Cat #109-055-097). AttoPhos fluorescence substrate (Roche, Cat #1484281) was added according to instructions of the manufacturer and fluorescence was measured (excitation at 430 nm, emission at 535 nm) using a microplate reader.
(An ELISA detects its analyte on a solid surface through an enzyme-linked reagent.)

In test [3] the target is T3, hu_CXCR2_N-term (1-17)-BSA (human; bovine, coupled to carrier protein BSA; C-terminal cysteine introduced to enable coupling).
T3 construct: Synthetic linear peptide chemically coupled to the carrier; also called CXCR2_aa1-17_BSA; CXCR2 aa1-17 BSA
Nature of the test: ELISA, coated peptide-BSA, Fab. The procedure:
as §2

The target in test [4] is T4, N-terminal peptide aa1-48, BSA-coupled (human; bovine, coupled to carrier protein BSA; C-terminal cysteine introduced to enable coupling).
T4 construct: also called CXCR2 aa1-48 BSA
The test can be described thus: ELISA, coated peptide-BSA, Fab. The method, then:
as §2

The target of test [5] is T1, human CXCR2. The test can be described thus: FACS, CXCR2 CHO Flp-In cells, Fab. The method, then:
as §1

T3 sequence (P02769 25-607 limits assumed): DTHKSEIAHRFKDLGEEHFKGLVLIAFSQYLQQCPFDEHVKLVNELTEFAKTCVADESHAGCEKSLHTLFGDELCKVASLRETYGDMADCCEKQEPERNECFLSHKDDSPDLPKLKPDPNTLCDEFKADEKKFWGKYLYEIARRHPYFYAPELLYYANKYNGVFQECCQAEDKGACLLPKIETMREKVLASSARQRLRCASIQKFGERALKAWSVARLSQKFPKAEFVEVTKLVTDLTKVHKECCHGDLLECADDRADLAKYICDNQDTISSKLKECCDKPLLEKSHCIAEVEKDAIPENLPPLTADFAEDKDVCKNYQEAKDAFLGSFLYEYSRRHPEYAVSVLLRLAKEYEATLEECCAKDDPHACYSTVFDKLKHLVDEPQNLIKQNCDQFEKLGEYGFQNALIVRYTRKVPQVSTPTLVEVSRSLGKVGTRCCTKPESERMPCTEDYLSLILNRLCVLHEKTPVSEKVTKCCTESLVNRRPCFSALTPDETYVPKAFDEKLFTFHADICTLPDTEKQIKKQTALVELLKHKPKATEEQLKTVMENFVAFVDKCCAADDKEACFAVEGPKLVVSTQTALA
T2 sequence (peptide, as listed by the source limits assumed, chain 1 of 2): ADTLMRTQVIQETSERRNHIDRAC
T2 sequence (P02769 25-607 limits assumed, chain 2 of 2): as the sequence (P02769 25-607 limits assumed) above

B1: CX2-Mab #6 (IgG1 format) (antibody, V domains shown)
VH: EVQLLESGGGLVQPGGSLRLSCAASGFTFSSYTMSWVRQAPGKGLEWVSAIHSSGSSTYYADSVKGRFTISRDNSKNTLYLQMNSLRAEDTAVYYCARVPAYYGFDHWGQGTLVTVSS
VL: DIELTQPPSVSVSPGQTASITCSGDSLGAFYVHWYQQKPGQAPVLVIYRTNNRPSGIPERFSGSNSGNTATLTISGTQAEDEADYYCASYASRNRVFGGGTKLTVLG
notes: Fab converted into IgG1 format, expressed in a human cell line, protein A purified
A word on the EC50: it is the concentration needed to bring the measured effect to its halfway point. The low end stands for an effect from little substance, the high end for a need for much substance. For the molecule B1, in test [1], a half-maximal response (EC50) required 0.1 nM.

B2: CX2-Mab #4 (IgG1 format) (antibody, V domains shown)
VH: EVQLLESGGGLVQPGGSLRLSCAASGFTFSSNGMSWVRQAPGKGLEWVSAISSSGSKTYYADSVKGRFTISRDNSKNTLYLQMNSLRAEDTAVYYCARGYGFDVWGQGTLVTVSS
VL: DIVLTQPPSVSGAPGQRVTISCSGSSSNIGVNIVNWYQQLPGTAPKLLIYSTSNRPSGVPDRFSGSKSGTSASLAITGLQAEDEADYYCATRDGISKSVVFGGGTKLTVLG
notes: Fab converted into IgG1 format, expressed in a human cell line, protein A purified; also called parental
Molecule B2 displayed an EC50 in test [1] of 0.1 nM.

B3: CX2-Mab #5 (IgG1 format) (antibody, V domains shown)
VH: EVQLLESGGGLVQPGGSLRLSCAASGFTFNSNAMSWVRQAPGKGLEWVSFISYSGSHTYYADSVKGRFTISRDNSKNTLYLQMNSLRAEDTAVYYCARYTRFLSRPAFDPWGQGTLVTVSS
VL: DIVLTQPPSVSGAPGQRVTISCTGSSSNIGAGYDVHWYQQLPGTAPKLLIYYNSKRPSGVPDRFSGSKSGTSASLAITGLQAEDEADYYCGAYDRKMNSYVFGGGTKLTVLG
notes: as for B1
As for B3, in test [1], the EC50 amounted to 17.7 nM.

B4: CX2-Mab #1 (IgG1 format) (antibody, V domains shown)
VH: QVQLVQSGAEVKKPGSSVKVSCKASGGTFSSYAISWVRQAPGQGLEWMGGIIPIVGEAKYAQKFQGRVTITADESTSTAYMELSSLRSEDTAVYYCARDSSGYDGYYAFAYWGQGTQVTVSS
VL: DIVLTQPPSVSGAPGQRGTISCSGSSSNIGSSSVNWYQQLPGTAPKLLIYRNNQRPSGVPDRFSGSKSGTSASLAITGLQAEDEADYYCGATDFSANQVVFGGGTKLTVLG
notes: as for B2
Turning to B4, the EC50 in test [1] stood at 0.4 nM.

B5: CX2-Mab #2 (IgG1 format) (antibody, V domains shown)
VH: QVQLVQSGAEVKKPGASVKVSCKASGYTFSRYAMHWVRQAPGQGLEWMGVINPYNGNTRYAQKFQGRVTMTRDTSISTAYMELSRLRSEDTAVYYCARGSHIQAGAFDYWGQGTLVTVSS
VL: DIQMTQSPSSLSASVGDRVTITCRASQGINNRLNWYQQKPGKAPKLLIYDGSSLQSGVPSRFSGSGSGTDFTLTISSLQPEDFATYYCQQYIHFPVTFGQGTKVEIKR
notes: as for B1
In test [1], B5 registered a concentration for a half-maximal effect (EC50) of over 667 nM.

B6: CX2-Mab #12 (Fab, V domains shown)
VH: QVQLLESGGGLVQPGGSLRLSCAASGFTFSRYWMSWVRQAPGKGLEWVSVISYSGSETYYADSVKGRFTISRDNSKNTLYLQMNSLRAEDTAVYYCARGRAYGYFDPWGQGTLVTVSS
VL: DIVLTQPPSVSGAPGQRVTISCSGSSSNIGKKTVSWYQQLPGTAPKLLIYRNNQRPSGVPDRFSGSKSGTSASLAITGLQAEDEADYYCQSTDSTHRMAVFGGGTKLTVLG
For the molecule B6, the binding result in test [2], in test [3], in test [4] and in test [5] was “binds” each time.

B7: CX2-Mab #17 (Fab, V domains shown)
VH: EVQLLESGGGLVQPGGSLRLSCAASGFTFSSYSMSWVRQAPGKGLEWVSYISSAGSNTYYADSVKGRFTISRDNSKNTLYLQMNSLRAEDTAVYYCARGRAYGYFDYWGQGTLVTVSS
VL: DIVLTQPPSVSGAPGQRVTISCSGSSSNIGSNTVYWYQQLPGTAPKLLISSNTKRPSGVPDRFSGSKSGTSASLAITGLQAEDEADYYCQVTDFRLHHVVFGGGTKLTVLG
With B7, the binding result in test [2], in test [3], in test [4] and in test [5] was “binds” in each case.

B8: CX2-Mab #3 (IgG1 format) (antibody, V domains shown)
VH: EVQLLESGGGLVQPGGSLRLSCAASGFTFSSYWMSWVRQAPGKGLEWVSVISYSGSETFYADSVKGRFTISRDNSKNTLYLQMNSLRAEDTAVYYCARGRVGYAFDYWGQGTLVTVSS
VL: DIVLTQPPSVSGAPGQRVTISCSGSSSNIGVNYVNWYQQLPGTAPKLLIYSNNQRPSGVPDRFSGSKSGTSASLAITGLQAEDEADYYCQSRASGFYSVVFGGGTKLTVLG
notes: as for B2
As for B8, in test [1], the EC50 came out at 0.2 nM.

B9: CX2-Mab #18 (Fab, V domains shown)
VH: EVQLLESGGGLVQPGGSLRLSCAASGFTFSRYAMSWVRQAPGKGLEWVSVISSDGGTTYYADSVKGRFTISRDNSKNTLYLQMNSLRAEDTAVYYCARIFSYALDYWGQGTLVTVSS
VL: DIVLTQPPSVSGAPGQRVTISCSGSSSNIGSYYVNWYQQLPGTAPKLLIYRNSKRPSGVPDRFSGSKSGTSASLAITGLQAEDEADYYCSSYDAHSDSVVFGGGTKLTVLG
Regarding B9, the binding result in test [2], in test [3], in test [4] and in test [5] was “binds” each time.

B10: CX2-Mab #19 (Fab, V domains shown)
VH: EVQLVQSGAEVKKPGESLKISCKGSGYSFTSYWISWVRQMPGKGLEWMGIIDPANSYTRYSPSFQGQVTISADKSISTAYLQWSSLKASDTAMYYCARVERRPRYYGSNYYGMDVWGQGTLVTVSS
VL: DIVLTQPPSVSGAPGQRVTISCSGSSSNIGSNYVNWYQQLPGTAPKLLIYGNSNRPSGVPDRFSGSKSGTSASLAITGLQAEDEADYYCSVRDSEGRYVVFGGGTKLTVLG
With B10, the binding result in test [2], in test [3], in test [4] and in test [5] was “binds” throughout.
